Test results taken from PMC7055300, “Theileria parasites subvert E2F signaling to stimulate leukocyte proliferation” (Scientific Reports, 2020).

Molecular target: human Retinoblastoma-1 (RB) pocket domain (human) (UniProt P06400)
Experiment: SPR

human Retinoblastoma-1 (RB) pocket domain (human), sequence (P06400 373-771): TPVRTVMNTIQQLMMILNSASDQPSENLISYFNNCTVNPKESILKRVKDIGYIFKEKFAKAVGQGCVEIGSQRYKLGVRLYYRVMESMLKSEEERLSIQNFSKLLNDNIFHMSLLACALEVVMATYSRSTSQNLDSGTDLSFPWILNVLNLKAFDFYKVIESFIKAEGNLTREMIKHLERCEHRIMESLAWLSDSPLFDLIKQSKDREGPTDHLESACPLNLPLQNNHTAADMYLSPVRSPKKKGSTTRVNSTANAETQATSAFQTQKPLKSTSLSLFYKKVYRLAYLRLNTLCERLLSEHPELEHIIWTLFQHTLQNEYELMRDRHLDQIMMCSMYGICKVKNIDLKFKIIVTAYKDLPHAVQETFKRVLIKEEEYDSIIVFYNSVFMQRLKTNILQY

full-length, recombinant TpGcpE protein (TpMuguga_02g00667) (natural protein)
Kd: 18.7 nM
